Test results taken from patent publication US20240100133A1, “ENZYMATICALLY INACTIVE GRANZYME A AND USES THEREFORE” (Saint Louis University, priority 2022, published 2024).

What was measured:
[1] = test system: LAMP1 (phagolysosome fusion); assay: Confocal microscopy colocalization of BCG-GFP and LAMP1; type: cell-based, human; conditions: compared with untreated controls
Experimental: Confocal microscopy and Stimulation Emission Depletion (STED) experiments. For confocal and STED microscopy experiments, cells were incubated on coverslips pre-treated with Cell-Tak (Corning #354240). At the time of fixation, cells were washed twice with 1×RT PBS, and then fixed in 4% paraformaldehyde for 15 min at 37° C. Slides were washed thrice for 5 min at RT with 1×PBS, and then blocked with 5% donkey serum (Cat. #017-000-121, Jackson ImmunoResearch, West Grove, PA) with 0.25% Tween-20 (Cat. #P9416, Sigma, St. Louis, MO) and True Stain Fc blocker (added only during blocking step) (Cat. #426101, Biolegend, San Diego, CA). Cells were then incubated overnight at 4° C. with primary antibody anti-GzmA (Cat. #MAB29051, R&D, Minneapolis, MN) at 12.5 μg/mL in blocking buffer, anti-PDIA1 (Cat. #MAB4236, R&D, Minneapolis, MN) at 12.5 μg/mL in blocking buffer, anti-LAMP1 at 12.5 ug/ml (Cat. #MAB4800, R&D, Minneapolis, MN), or anti-ATPSH (Cat. #ab110275, Abcam, Cambridge, UK) at 5 μg/mL in blocking buffer. To remove unbound antibody, cells were washed four times with 1×PBS at RT, and then incubated in the dark for 2 h with secondary antibody conjugated with Alexa Fluor 594 (Cat. #715-545-150, Jackson Immunoresearch, West Grove, PA) at 1:100 or Atto 647N (Cat. #ASR3248, Abcepta, San Diego, Ca) at 1:100. […]

[2] = test system: Connaught BCG within primary CD14+ human monocytes; type: cell-based

B1: GzmA-WT: recombinant wild-type human Granzyme A, homodimeric serine protease, purified from HEK293T supernatants (protein)
chain: IIGGNEVTPHSRPYMVLLSLDRKTICAGALIAKDWVLTAAHCNLNKRSQVILGAHSITREEPTKQIMLVKKEFPYPCYDPATREGDLKLLQLMEKAKINKYVTILHLPKKGDDVKPGTMCQVAGWGRTHNSASWSDTLREVNITIIDRKVCNDRNHYNFNPVIGMNMVCAGSLRGGRDSCNGDSGSPLLCEGVFRGVTSFGLENKCGDPRGPGVYILLSKKHLNWIIMTIKGAV
modifications: left off: small tags and cut ends
notes: recombinant wild-type human Granzyme A, homodimeric serine protease, purified from HEK293T supernatants
With B1 the “colocalization between LAMP1 and BCG-GFP” value [1] was “greater degree of colocalization”, the “GzmA inhibitory activity after CD14 neutralization (MGIA)” value [2] was “lost their inhibitory activity” and the “GzmA inhibitory activity after TLR2 neutralization (MGIA)” value [2] was “does not reverse”. The “GzmA inhibitory activity after TLR4 neutralization (MGIA)” value [2] was “reversed GzmA-mediated mycobacterial growth inhibition”, the “intracellular replication of pre-opsonized mycobacteria (excess protein removed)” value [2] was “reduced intracellular replication capacity” and the “mycobacterial growth inhibition, GzmA added prior to or during infection” value [2] was “maximal inhibitory effects”. For the same molecule, the “mycobacterial growth inhibition, GzmA added to already infected cells” value [2] was “did not mediate inhibition” and the “inhibition of intracellular mycobacterial replication (MGIA)” value ([2]; 72 h) was “inhibits the intracellular replication of mycobacteria”.
